The record followed here is article PMC2112059.

The target of this experiment is Triton X-100-insoluble residue of platelets (platelet cytoskeleton) (human (endogenous in platelets)) (UniProt P60709). Description: co-sedimentation.

Consider “platelet surface glycoprotein GPIII (from UniProt P05106 27-788) (natural protein)”, for which the percent of radioactivity in the supernatant fraction, without m1 is above 95%.
